Experimental findings from patent US11505583B2, “Proteins for the treatment of epithelial barrier function disorders” (Second Genome, Inc., priority 2018, dated 2022) are described below.

The subject of assay [1] is C57BL/6 mice given 2.5% DSS in drinking water. Nature of the assay: Concurrent (prophylactic) DSS model of inflammatory bowel disease (Example 4, Example 13A). The format is in vivo, mouse. Particulars: for 4KDa-FITC signal in serum / Colon length: vs DSS+vehicle; for Colon length: FIG. 22A. Here is the method: Specifically, the mice in Examples 4 and 5 were treated with dextran sodium sulfate (DSS), a chemical known to induce intestinal epithelial damage and thereby reduce intestinal barrier integrity and function. DSS mice are well-accepted models of colitis. In Example 4, mice were treated with SG-11 protein approximately concurrent with (6 hours prior to) administration of DSS. In Example 5, mice were treated with DSS for 6 days prior to treatment with SG-11 protein.
The graphs presented in Example 4 represent data pooled from 3 independent experiments, each using 10 mice (n=30). The SG-11 protein used in these experiments was the mature protein (no signal peptide) without an N-terminal tag and comprising the amino acid sequence of SEQ ID NO:3. For 2 experiments, the SG-11 protein consisted of SEQ ID NO:5; for the third experiment, the SG-11 protein consisted of SEQ ID NO:7.
Eight-week old C57BL/6 mice were housed 5 animals were cage and given food and water ad libitum for 7 days. Following the 7-day acclimation period, treatments were initiated concurrently with addition of 2.5% DSS to the drinking water. […] The mice were treated with 2.5% dextran sodium sulfate (DSS) in their drinking water for 6 days. Treatments were continued with SG-11 or Gly2-GLP2 twice a day (b.i.d.) in the morning and evening (every 8 and 16 hr) with i.p. injections at 50 nmoles/kg. Fresh 2.5% DSS drinking water was prepared every 2 days.
On day six, mice were fasted for four hours and then orally gavaged with 600 mg/kg 4KDa dextran labeled with fluorescein isothiocyanate (FITC) [4KDa-FITC]. One hour after the 4KDa-FITC gavage mice were euthanized, blood was collected and FITC signal was measured in serum. […] The magnitude of 4KDa-FITC dextran translocation observed for SG-11 was similar to the positive control of Gly2-GLP2. Results are shown in FIG. 3, and are presented as mean±SEM. The graph in FIG. 3 represents data pooled from 3 independent experiments (n=30).
SG-11 was also assessed for its effects on the levels of LPS binding protein (LBP) in the blood of the DSS animal with and without SG-11 administration. LPS binding protein (LBP), which has been linked to clinical disease activity in subjects with inflammatory bowel disease, was also measured by ELISA in the serum of mice tested in the DSS model described in Example 4. […] Results are shown in FIG. 4, and are presented as mean±SEM. The graph in FIG. 4 represents data pooled from 3 independent experiments (n=30).
Body weight was measured daily from mice included in the DSS model described in this Example. Percent change from starting weight on day 0 was determined for each mouse. […] Weight loss in mice treated with SG-11 at day 6 was similar to weight loss observed with Gly2-GLP2. The graph in FIG. 5 represents data pooled from two independent experiments (n=20).
Gross pathology observations were made in mice included in the concurrent DSS model performed in this Example. […] No differences in clinical scores were observed between mice given DSS and treated with either Gly2-GLP2 or SG-11. The scoring system used was: (0)=no gross pathology, (1)=streaks of blood visible in feces, (2)=completely bloody fecal pellets, (3) bloody fecal material visible in cecum, (4) bloody fecal material in cecum and loose stool, (5)=rectal bleeding. The graph in FIG. 6 represents data pooled from 3 independent experiments (n=30).
Colon length was measured in mice included in the DSS model described in Example 7. […] The graphs in FIGS. 8A and 8B represent data pooled from 3 independent experiments (n=30). Data are graphed as mean±SEM and are pooled from three independent experiments (n=30). Statistical analysis was performed by a one-way ANOVA followed by a Fisher's LSD multiple comparisons test.
Briefly, in the first DSS mouse model (Example 13A), mice were treated on day zero with test compound intraperitoneally (i.p.) and 6 hours later DSS treatment was initiated. […]

The test system of assay [2] is human colonic epithelial cells (HCT8 enterocytes and HT29-MTX goblet cells) co-cultured with U937 monocytes. Kind of assay: In vitro trans-epithelial electrical resistance (TEER) co-culture assay, barrier disruption by heat killed E. coli. The format is cell-based. Particulars: Example 12; 1 μg/ml (40 nM), 6 hours pre-incubation; HK E. coli alone 78.6%; FIG. 17.
Experimental: Assays were performed as described below in trans-well plates where co-cultures of multiple cell types were performed utilizing a permeable membrane to separate cells. In the apical (top) chamber, human colonic epithelial cells, consisting of a mixture of enterocytes and goblet cells, were cultured until cells obtained tight junction formation and barrier function capacity as assessed by measurement of trans-epithelial electrical resistance (TEER). In the basolateral chamber, monocytes were cultured separately. Epithelial cells were primed with inflammatory cytokines. The assays measured the effect of a therapeutic protein, i.e., SG-11, on epithelial barrier function, muc2 gene expression, and production of cytokines.
Cell culture. The HCT8 human enterocyte cell line (ATCC Cat. No. CCL-244) was maintained in RPMI-1640 medium supplemented with 10% fetal bovine serum, 100 IU/ml penicillin, 100 μg/ml streptomycin, 10 μg/ml gentamicin and 0.25 μg/ml amphotericin (cRPMI). […]
Epithelial cell culture. […] Epithelial cells were trypsinized from culture flasks and viable cells determined by trypan blue counting. […]
Co-culture assay. […] Trans-epithelial electrical resistance (TEER) readings were measured after the IFN-γ treatment and were used as the pre-treatment TEER values. […]

Substitutions are numbered along the chain they refer to. In names and notes the source's numbering stands.

B1: SG-11 (SEQ ID NO:7): Recombinant SG-11 with N-terminal methionine, 233 amino acids, no N-terminal tag (protein)
chain: MLEGEESVVYVGKKGVIASLDVETLDQSYYDETELKSYVDAEVEDYTAEHGKNAVKVESLKVEDGVAKLKMKYKTPEDYTAFNGIELYQGKVVASLAAGYVYDGEFARVEEGKVVGAATKQDIYSEDDLKVAIIRANTDVKVDGEICYVSCQNVKLTGKDSVSIRDGYYLETGSVTASVDVTGQESVGTEQLSGTEQMEMTGEPVNADDTEQTEAAAGDGSFETDVYTFIVYK
Take B1: the “4KDa-FITC signal in serum” value in assay [1] (Example 13A, 50 nmoles/kg i.p. twice a day, p=0.04, FIG. 18A) is “significantly reduced the 4KDa-FITC signal”. In assay [1] (Example 13A), the Colon length result was “significant increase in the colon length”. The “TEER after HK E. coli (normalized, relative to untreated samples)” value in assay [2] came out at 89.5%.

B2: SG-11V5: SG-11 variant SEQ ID NO:19 comprising N53S, N83S, C147V, C151S with respect to SEQ ID NO:7 (protein)
chain: B1 chain with N53S, N83S, C147V, C151S
With B2, the “Gross pathology score (0-5)” value in assay [1] (Example 13, 160 nmoles/kg, dose dependent effect, p<0.002, FIG. 21) was “significant improvement”. Further, in assay [1] (Example 13, FIG. 18B, p=0.21), the “4KDa-FITC signal in serum” value is “also reduced the 4KDa-FITC signal, although the difference was not reach statistical significance”. For the same molecule, in assay [1] (Example 13A, 158 nmoles/kg i.p. twice a day, p=0.003, FIG. 19A), the “LBP in serum (ELISA)” value was “significant reduction in LBP production”. Moreover, the Body weight entry in assay [1] (Example 13A, 158 nmoles/kg, day 6, FIG. 20A) is listed as “significant improvement in body weight”. In addition, the Colon length entry in assay [1] (Example 13A) is “significant increase in the colon length”. Further, in assay [1] (prophylactic DSS model, 16, 50 and 158 nmoles/kg), the “Dose dependence of effect on colon length” value was “no dose-dependent effect on colon length”. In addition, the “TEER after HK E. coli (normalized, relative to untreated samples)” value in assay [2] was found to be 89.1%.
